# Results published in patent publication US20170165338A1.
# Biological target: HLA-A*02 (human)
# Experiment: UV-exchange b2m ELISA
row,Binder,peptide exchange yield
1,TVVTRLDEI,20 to 49%
2,FLDKVLVAA,50 to 75%
3,SLDPDTLPAV,20 to 49%
4,ALLGTKILL,50 to 75%
5,TLLQRLTEV,50 to 75%
6,SLSNRLYYL,50 to 75%
7,GVVDPVHGV,20 to 49%
8,FLLGVSKEV,50 to 75%
9,ALCPRIHEV,> 75%
10,FIFDEAEKL,< 20%
11,YLLQSVNQLLL,20 to 49%
12,TLFGYSVVL,50 to 75%
13,SLDPSVTHL,20 to 49%
14,FLAVGLVDV,50 to 75%
15,VLNDILVRA,50 to 75%
16,ALADFMLSL,50 to 75%
17,VLHSKFWVV,50 to 75%
18,FTIFRTISV,50 to 75%
19,LLVPTSGIYFV,50 to 75%
20,SLGKFTFDV,> 75%
21,ALLPRLHQL,> 75%
22,FINDSIVYL,50 to 75%
23,SLLGGTFVGI,50 to 75%
24,TIYKDFVYI,20 to 49%
25,AIVKEIVNI,20 to 49%

row,Binder,peptide exchange yield
1,ALLGMIIVGV,< 20%
2,AVGPVHNSV,20 to 49%
3,VTFKEYVTV,20 to 49%
4,ILGEVLAQL,50 to 75%
5,YLVSEIFKA,50 to 75%
6,FLERGLESA,20 to 49%
7,RLFPDFFTRVAL,20 to 49%
8,FLLPTGAEA,20 to 49%
9,LLLGDSALYL,50 to 75%
10,SLADYEHFV,> 75%
11,ALNPELVQA,20 to 49%
12,TQSPATLSV,20 to 49%
13,KLIFSVEAV,50 to 75%
14,ILLKNLVTI,20 to 49%
15,QLIQTLHAV,50 to 75%
16,RLQDILWFL,> 75%
17,FLFGGVLMTL,20 to 49%
18,SVVPDVRSV,20 to 49%
19,QMFQYFITV,> 75%
20,GQASYFYVA,20 to 49%
21,KMPDVELFV,50 to 75%
22,LLVSHLYLV,20 to 49%
23,LLLPAVPVGA,50 to 75%
24,QLAPVFQRV,20 to 49%
25,VTPVTVSAV,< 20%

row,Binder,peptide exchange yield
1,QLWQFLVTL,50 to 75%
2,YTLREVDTV,20 to 49%
3,GLAVPTPSV,50 to 75%
4,SQIPAQPSV,20 to 49%
5,FLQDLEQRL,50 to 75%
6,AQADHLPQL,20 to 49%
7,NALDKVLSV,50 to 75%
8,FIIQGLRSVGA,50 to 75%
9,VLDPALPALV,20 to 49%
10,GLLFSLRSV,> 75%
11,SLFPDSLIV,20 to 49%
12,ALISWQPPRA,50 to 75%
13,ALLAKILQI,50 to 75%
14,FLTAINYLL,50 to 75%
15,VLLDIQEVFQI,50 to 75%
16,HLSTIIHEA,50 to 75%
17,KLYEADFVL,20 to 49%
18,GLLGSLFFL,> 75%
19,SVDSHFQEV,20 to 49%
20,VTSNSGILGV,50 to 75%
21,AVIKFLELL,50 to 75%
22,KVMATIEKV,20 to 49%
23,TLIDEQDIPLV,50 to 75%
24,KLDGNELDL,50 to 75%
25,AIVDLIHDI,20 to 49%
